The text below walks through data of patent publication US20190336574A1 (TRUSTEES OF PRINCETON UNIVERSITY, published 2019).

Assay [1] has as its target T1, HA-SND1, full-length human, wild type (human, UniProt Q7KZF4 1-910).
T1 construct: Full-length, HA-tagged; Expressed in HEK293T cells, tested in lysate; also called HA-tagged SND1; WT HA-SND1
T1 sequence: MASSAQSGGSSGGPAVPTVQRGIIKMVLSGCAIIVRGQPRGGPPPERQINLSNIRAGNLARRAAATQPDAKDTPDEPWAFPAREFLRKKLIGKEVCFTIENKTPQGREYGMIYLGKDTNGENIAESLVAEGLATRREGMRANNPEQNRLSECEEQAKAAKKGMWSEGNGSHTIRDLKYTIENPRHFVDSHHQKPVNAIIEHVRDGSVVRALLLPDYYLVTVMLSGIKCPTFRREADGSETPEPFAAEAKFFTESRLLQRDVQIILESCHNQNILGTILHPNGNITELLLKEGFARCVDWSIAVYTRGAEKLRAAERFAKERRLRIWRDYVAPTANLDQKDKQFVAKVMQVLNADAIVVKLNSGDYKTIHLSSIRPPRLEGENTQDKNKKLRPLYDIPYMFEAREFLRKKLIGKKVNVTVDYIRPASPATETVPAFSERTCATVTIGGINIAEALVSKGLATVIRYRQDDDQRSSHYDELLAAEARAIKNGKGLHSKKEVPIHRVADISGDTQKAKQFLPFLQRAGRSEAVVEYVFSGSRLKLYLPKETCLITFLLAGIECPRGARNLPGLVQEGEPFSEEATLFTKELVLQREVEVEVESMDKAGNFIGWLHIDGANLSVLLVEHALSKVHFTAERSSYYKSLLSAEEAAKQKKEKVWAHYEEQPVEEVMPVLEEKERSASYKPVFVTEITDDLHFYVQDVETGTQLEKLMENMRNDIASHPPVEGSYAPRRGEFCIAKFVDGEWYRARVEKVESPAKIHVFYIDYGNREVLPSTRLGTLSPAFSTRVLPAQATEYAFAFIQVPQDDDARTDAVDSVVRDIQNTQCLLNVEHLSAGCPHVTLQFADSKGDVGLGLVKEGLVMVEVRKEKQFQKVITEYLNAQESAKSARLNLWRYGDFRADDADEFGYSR
Nature of the assay: competition in co-IP from 293T cells with HA-SND1 and MYC-MTDH (m36 is the competitor); peptide at 50 uM; the sheet prints IP: MYC, the legend says anti-HA [26B, 26C, 26D]. As to the method: 293 T cells were co-transfected with HA-SND1 and MYC-MTDH. After 48 hours, the cells were collected and subject to immunoprecipitation assay. Cell lysate was incubated with anti-HA antibody or IgG overnight followed by a two hour incubation with Protein A/G beads to pull down HA-SND1 protein. The beads were washed with lysis buffer and split into five fractions.
The elution fractions and beads were collected for western blot. (FIGS. 26C and 26D) Cell lyaste was split into 6 fractions. One of the fractions was incubated with IgG and the rest were incubated with anti-HA antibody plus either buffer or indicated peptides. After 24 hours, the lysate was incubated with Protein A/G beads then the beads was washed followed by wash buffer. 50 uM of peptides was used in all the assays.

In assay [2] the target is T2, endogenous human SND1 (human breast cancer cells, MDA-MB-231) (human, UniProt Q7KZF4 2-910).
T2 construct: Endogenous protein in cell lysate; also called endogenous SND1 protein
T2 sequence: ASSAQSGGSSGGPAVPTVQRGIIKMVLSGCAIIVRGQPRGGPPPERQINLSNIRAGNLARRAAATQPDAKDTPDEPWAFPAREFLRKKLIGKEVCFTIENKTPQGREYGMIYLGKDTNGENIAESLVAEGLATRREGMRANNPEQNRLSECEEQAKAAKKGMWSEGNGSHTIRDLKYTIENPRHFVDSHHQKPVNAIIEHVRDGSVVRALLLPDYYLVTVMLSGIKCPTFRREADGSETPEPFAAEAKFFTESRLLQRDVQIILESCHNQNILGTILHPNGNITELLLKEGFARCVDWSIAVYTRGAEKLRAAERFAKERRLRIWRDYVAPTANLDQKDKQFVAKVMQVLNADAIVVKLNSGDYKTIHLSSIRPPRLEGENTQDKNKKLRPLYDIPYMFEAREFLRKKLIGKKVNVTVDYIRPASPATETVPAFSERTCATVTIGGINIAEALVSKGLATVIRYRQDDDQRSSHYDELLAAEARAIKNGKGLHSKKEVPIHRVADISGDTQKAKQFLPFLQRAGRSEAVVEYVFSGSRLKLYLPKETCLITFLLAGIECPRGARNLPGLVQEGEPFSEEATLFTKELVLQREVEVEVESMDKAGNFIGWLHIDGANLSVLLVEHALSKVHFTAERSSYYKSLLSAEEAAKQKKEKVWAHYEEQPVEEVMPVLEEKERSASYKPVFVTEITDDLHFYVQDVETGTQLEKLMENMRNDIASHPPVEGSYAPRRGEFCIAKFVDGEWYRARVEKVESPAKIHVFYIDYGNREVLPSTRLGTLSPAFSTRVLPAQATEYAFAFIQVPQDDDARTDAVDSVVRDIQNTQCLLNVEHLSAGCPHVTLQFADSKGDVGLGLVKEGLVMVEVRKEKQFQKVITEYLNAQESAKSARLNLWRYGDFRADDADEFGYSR
Nature of the assay: competition in endogenous co-IP from MDA-MB-231 lysate (endogenous MTDH, m58, is the competitor); peptide at 50 uM; the sheet prints IP: MTDH, the legend says anti-SND1 [27B]. As to the method:
Breast cancer cells MDA-MB231 were collected and subjected to IP assay. (FIG. 27A) Cell lysate was incubated with anti-SND1 antibody or IgG overnight followed by 2 hr incubation with Protein A/G beads to pull down endogenous SND1 protein. The beads were washed with lysis buffer and split into 5 fractions. Each fraction was eluted with buffer or indicated peptides for 30 min. The elution fractions and beads were collected for WB. (FIG. 27B) Cell lyaste was split into 5 fractions, and incubated with anti-SND1 antibody plus either buffer or indicated peptides. After 24 hr, the lysate was incubated with Protein A/G beads then the beads were washed in wash buffer.
The interaction interruption effects was confirmed by endogenous immunoprecipitation (IP) of a breast cancer cell line. Briefly, cell lysates from the breast cancer cell line MDA-MB-231 were collected and subjected to IP assay. FIG. 27A—Cell lysate was incubated with anti-SND1 antibody or IgG overnight followed by 2 hr incubation with Protein A/G beads to pull down endogenous SND1 protein. The beads was washed with lysis buffer and split into 5 fractions. Each fraction was eluted with buffer or indicated peptides for 30 min. The elution fractions and beads were collected for WB. FIG. 27B—Cell lyaste was split into 5 fractions, and incubated with anti-SND1 antibody plus either buffer or indicated peptides. […]

The target of assay [3] is T3, His6-SND1ΔC (SND1 residues 1-339) (human, UniProt Q7KZF4 1-339).
T3 construct: not shown: N-terminal His tag (His6, His8 or His) with TEV site, pQlink vector
T3 sequence: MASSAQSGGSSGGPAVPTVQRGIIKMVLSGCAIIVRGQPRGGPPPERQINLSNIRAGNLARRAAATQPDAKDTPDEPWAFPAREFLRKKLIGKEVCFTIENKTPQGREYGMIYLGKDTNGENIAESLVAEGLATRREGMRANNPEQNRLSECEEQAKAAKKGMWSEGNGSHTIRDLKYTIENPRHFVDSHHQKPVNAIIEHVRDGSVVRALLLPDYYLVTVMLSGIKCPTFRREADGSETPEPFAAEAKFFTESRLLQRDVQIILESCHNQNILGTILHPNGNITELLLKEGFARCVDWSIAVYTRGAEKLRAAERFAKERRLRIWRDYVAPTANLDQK
As to the kind of experiment: schematic that sums up the GST pull-downs of His6-SND1ΔC. The text has this: FIGS. 7A-E represents determination of key regions and residues mediating the MTDH-SND1 interaction. (FIG. 7A) Schematics of MTDH fragments and mutants with indicated SND1-binding capability. + indicates binding and − indicates no binding based on results shown below. Two putative nuclear localization signals are residues 432-451 for NLS2 and residues 561-580 for NLS3. […] (FIG. 7B) Pulldown of His6-SND1ΔC by GST-tagged MTDH fragments with indicated boundaries. The bound proteins were examined by SDS-PAGE and visualized by Coomassie blue staining. […] For (FIG. 7B) and (FIG. 7C), 1/10 of the His6-SND1ΔC input was shown, and GST alone was used as a negative control. Representative results of 3 independent experiments are shown. (FIG. 7D, FIG. 7E) Lysates from HEK293T cells expressing the indicated ectopic human SND1, AGO2 or MTDH were immunoprecipitated with anti-Myc and immunoblotted with the indicated antibodies.
To further test whether the physical interaction with SND1 is critical for the function of MTDH, detailed analysis on the interaction of the proteins was conducted. SND1 contains four N-terminal Staphylococcal nuclease (SN) repeats and a C-terminal Tudor-SN hybrid domain. […] This allowed us to use the SND1ΔC fragment for the following in vitro binding studies.

Consider PNSDWNAPAEEWGNW (also called wild type MTDH peptide) [Peptide-wt (PNSDWNAPAEEWGNW)], for which the binding result in assay [1] and in assay [2] was “binds” throughout.

B1: GST-MTDH 406-470 (other)
fusion protein: DEERASLLKSQEPIPDDQKVSDDDKEKGEGALPTGKSKKKKKKKKKQGEDNSTAQDTEELEKEIR
Take B1: in assay [3], the binding result is given as “no binding”.
